From IntAct's records for PubMed 29039417

B1: Protein PTHB1 (Homo sapiens), Q3SYG4 (parent)
chain: MSLFKARDWWSTILGDKEEFDQGCLCLANVDNSGNGQDKIIVGSFMGYLRIFSPHPAKTGDGAQAEDLLLEVDLRDPVLQVEVGKFVSGTEMLHLAVLHSRKLCVYSVSGTLGNVEHGNQCQMKLMYEHNLQRTACNMTYGSFGGVKGRDLICIQSMDGMLMVFEQESYAFGRFLPGFLLPGPLAYSSRTDSFLTVSSCQQVESYKYQVLAFATDADKRQETEQQKLGSGKRLVVDWTLNIGEQALDICIVSFNQSASSVFVLGERNFFCLKDNGQIRFMKKLDWSPSCFLPYCSVSEGTINTLIGNHNNMLHIYQDVTLKWATQLPHIPVAVRVGCLHDLKGVIVTLSDDGHLQCSYLGTDPSLFQAPNVQSRELNYDELDVEMKELQKIIKDVNKSQGVWPMTEREDDLNVSVVVSPNFDSVSQATDVEVGTDLVPSVTVKVTLQNRVILQKAKLSVYVQPPLELTCDQFTFEFMTPDLTRTVSFSVYLKRSYTPSELEGNAVVSYSRPTDRNPDGIPRVIQCKFRLPLKLICLPGQPSKTASHKITIDTNKSPVSLLSLFPGFASQSDDDQVNVMGFHFLGGARITVLASKTSQRYRIQSEQFEDLWLITNELILRLQEYFEKQGVKDFACSFSGSIPLQEYFELIDHHFELRINGEKLEELLSERAVQFRAIQRRLLARFKDKTPAPLQHLDTLLDGTYKQVIALADAVEENQGNLFQSFTRLKSATHLVILLIALWQKLSADQVAILEAAFLPLQEDTQELGWEETVDAAISHLLKTCLSKSSKEQALNLNSQLNIPKDTSQLKKHITLLCDRLSKGGRLCLSTDAAAPQTMVMPGGCTTIPESDLEERSVEQDSTELFTNHRHLTAETPRPEVSPLQGVSE
partner: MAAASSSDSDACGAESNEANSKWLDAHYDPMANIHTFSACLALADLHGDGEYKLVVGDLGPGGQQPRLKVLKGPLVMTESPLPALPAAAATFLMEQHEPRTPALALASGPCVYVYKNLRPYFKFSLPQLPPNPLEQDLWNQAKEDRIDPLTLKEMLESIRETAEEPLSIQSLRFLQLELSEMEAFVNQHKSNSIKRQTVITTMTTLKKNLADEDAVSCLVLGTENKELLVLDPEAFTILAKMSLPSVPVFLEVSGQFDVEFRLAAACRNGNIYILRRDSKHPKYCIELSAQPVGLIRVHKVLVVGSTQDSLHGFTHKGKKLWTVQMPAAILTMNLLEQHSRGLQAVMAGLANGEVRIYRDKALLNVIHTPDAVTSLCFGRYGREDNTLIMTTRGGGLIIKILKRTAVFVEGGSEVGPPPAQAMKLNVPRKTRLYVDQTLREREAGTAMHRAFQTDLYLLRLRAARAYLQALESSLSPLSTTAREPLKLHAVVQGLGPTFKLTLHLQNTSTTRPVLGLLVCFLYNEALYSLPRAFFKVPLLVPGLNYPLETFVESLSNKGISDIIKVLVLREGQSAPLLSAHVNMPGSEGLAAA

Variants of: B1
Details: with bbs1_human BBS1, Q8NFJ9

| effect of a mutation on the interaction | Variant |
| --- | --- |
| with no effect | V450E |
| with no effect | H581A |
| with no effect | I801E |
| with no effect | P530K |
| with no effect | I519A |
| with no effect | S637A |
| with no effect | T813K |
| with no effect | L759A |
| with no effect | N448A |
| with no effect | V485A |
| with no effect | K704E |
| with no effect | Q791K |
| with no effect | L863K |
| with no effect | K443A |
| with no effect | T478A |
| with no effect | K786A |
| with no effect | A774K |
| with no effect | A427E |
| with no effect | C634E |
| with no effect | L616E |
| disrupting interaction strength | L616P |
| with no effect | E715A |
| with no effect | T845E |
| with no effect | F724E |
| with no effect | F566K |
| with no effect | T763E |

| effect of a mutation on the interaction | Variant |
| --- | --- |
| with no effect | S639K |
| with no effect | S639A |
| with no effect | N716E |
| with no effect | N716A |
| with no effect | L757A |
| disrupting interaction strength | A754G |
| with no effect | A754K |
| with no effect | G842K |
| with no effect | L591E |
| disrupting interaction strength | P802T |
| with no effect | N412E |
| with no effect | T697E |
| with no effect | A712K |
| with no effect | A712E |
| disrupting interaction strength | S570L |
| with no effect | S570A |
| with no effect | S570E |
| with no effect | A746K |
| with no effect | I776A |
| disrupting interaction strength | A690V |
| with no effect | A690E |
| with no effect | G579K |
| with no effect | E499K |
| with no effect | H778K |
| with no effect | H778A |
| with no effect | L491A |

| effect of a mutation on the interaction | Variant |
| --- | --- |
| with no effect | Y599A |
| with no effect | G767K |
| with no effect | G638A |
| with no effect | Q807K |
| with no effect | P758K |
| with no effect | F864K |
| with no effect | K810E |
| with no effect | S596K |
| with no effect | T771A |
| with no effect | H546A |
| with no effect | D572E |
| with no effect | D631K |
| with no effect | S788K |
| with no effect | R876A |
| with no effect | R679A |
| with no effect | V413K |
| with no effect | L642A |
| with no effect | P438E |
| with no effect | T829K |
| with no effect | T829A |
| with no effect | I676K |
| with no effect | T861K |
| with no effect | F606K |
| with no effect | S806E |
| disrupting interaction strength | S568G |
| with no effect | P834K |

| effect of a mutation on the interaction | Variant |
| --- | --- |
| disrupting interaction strength | Q597R |
| with no effect | Q858K |
| with no effect | K532E |
| with no effect | G502E |
| with no effect | S787E |
| with no effect | P463E |
| with no effect | R521E |
| with no effect | V442A |
| with no effect | L727K |
| with no effect | D700E |
| with no effect | D700K |
| with no effect | K547E |
| with no effect | V856A |
| with no effect | K554A |
| with no effect | L766K |
| with no effect | E663A |
| with no effect | H732A |
| with no effect | H732K |
| with no effect | H732E |
| with no effect | I550K |
| with no effect | D410E |
| with no effect | D571K |
| disrupting interaction strength | Q462T |
| with no effect | K728A |
| with no effect | K728E |
| with no effect | Q760K |

| effect of a mutation on the interaction | Variant |
| --- | --- |
| with no effect | H652E |
| with no effect | H652A |
| disrupting interaction strength | Q627T |
| with no effect | A730E |
| with no effect | R678K |
| with no effect | S486K |
| with no effect | W741A |
| with no effect | V671E |
| with no effect | S603A |
| with no effect | M578E |
| with no effect | E475A |
| with no effect | V879K |
| with no effect | R483K |
| disrupting interaction strength | E604V |
| with no effect | Y495K |
| with no effect | T512E |
| with no effect | G659E |
| with no effect | G628E |
| with no effect | S785A |
| with no effect | T496E |
| with no effect | A675E |
| with no effect | L411A |
| disrupting interaction strength | L692R |
| with no effect | N420A |
| with no effect | E714A |
| with no effect | F476A |

| effect of a mutation on the interaction | Variant |
| --- | --- |
| with no effect | N794K |
| with no effect | K594E |
| with no effect | G433E |
| with no effect | E862A |
| with no effect | C826E |
| with no effect | S498K |
| with no effect | T844K |
| with no effect | E408K |
| with no effect | G518A |
| with no effect | Q693E |
| with no effect | T782A |
| with no effect | T782K |
| with no effect | R407A |
| with no effect | Q643E |
| disrupting interaction strength | G565P |
| with no effect | L752A |
| with no effect | V629K |
| with no effect | S509K |
| with no effect | L819A |
| with no effect | I846A |
| with no effect | P537K |
| with no effect | E769K |
| with no effect | G585A |
| with no effect | K685A |
| disrupting interaction strength | A592V |
| with no effect | F563E |

| effect of a mutation on the interaction | Variant |
| --- | --- |
| with no effect | S667A |
| with no effect | G718A |
| with no effect | P540E |
| with no effect | S849K |
| with no effect | T874K |
| with no effect | I707K |
| with no effect | N800K |
| with no effect | G822K |
| disrupting interaction strength | A670V |
| with no effect | I640E |
| with no effect | F756K |
| with no effect | Q798K |
| with no effect | V437K |
| with no effect | F632E |
| with no effect | L609A |
| with no effect | T468A |
| with no effect | P419K |
| with no effect | D696E |
| with no effect | F646A |
| disrupting interaction strength | L618F |
| with no effect | Y508A |
| with no effect | C525A |
| with no effect | Q883K |
| with no effect | V444E |
